From patent US20250197484A1 (ECO ANIMAL HEALTH, published 2025)
Read-outs that look alike come from different tables or passages of the source.

Assays:
[1] = target: T1, Clostridium perfringens NetB toxin (necrotic enteritis B-like toxin) (Clostridium perfringens); assay: cell-based or functional assay
[2] = target: T1, Clostridium perfringens NetB toxin …; assay: cell-based or functional assay; remark: listed apart in the source
[3] = target: T1, Clostridium perfringens NetB toxin …
[4] = target: T1, Clostridium perfringens NetB toxin …; assay: SPR (Biacore 8K+), single cycle kinetics, NetB toxin immobilised, pH 7.4
[5] = target: T1, Clostridium perfringens NetB toxin …; remark: listed apart in the source

Binder | IC50 of NetB-induced RBC lysis inhibition after incubation in water, Day 0 [1] [nM] | IC50 of NetB-induced RBC lysis inhibition after incubation in water, Day 1 [1] [nM] | IC50 of NetB-induced RBC lysis inhibition after incubation in water, Day 4 [1] [nM] | IC50, inhibition of NetB-induced RBC lysis, 0 min incubation with 30 U/ml pepsin [2] [nM] | EC50 (read off the curve) [3] [µg/mL] | Kd [4] [nM] | koff [4] [s⁻¹] | kon [4] [M⁻¹ s⁻¹] | EC50 (read off the curve) [5] [µg/mL]
Net_14 (VHH) VHH: QVQLVESGGGLVQAGGSVRLSCVASGLTFSGYSLGWFRQAPGKEREGVSYISSSGMITDYADSVKGRVTISRDDAKSTMYLQMNSLKPEDTAVYYCAARFPRPRSWLSTDSYNYWGQGAQVTVSS | 44.2 | 53 | 51.1 | 23 | ~0.02 | 0.095 | 6.32e-05 | 668000 | 
Net_83 (VHH) VHH: QVQLVESGGGLVQAGESLRLSCAASGSIRSISFMNWYRQQPGKQRELVAGINQIGNTNYAGSVKGRFTISRDNAKNTVYLQMNSLKPEDTAVYYCNVIVRGTVSPFQFWGQGTQVTVSS | 163 | 168 | 245 | 61 |  | 0.213 | 0.000248 | 1.17e+06 | ~0.03
